In the supplement of paper PMC9112550, “Optimization of the antimicrobial peptide Bac7 by deep mutational scanning” (BMC Biology, 2022):

What follows are sequences tested on Escherichia coli TOP10 (assay: shrunken log2 fold change of peptide-encoding DNA abundance (4.5 h post-induction vs induction); higher = less antimicrobial activity (less host growth inhibition)). Settings: time post-induction: 4.5 h; library: site-saturation at positions 5, 18, 19, 20.
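Also: peptides expressed intracellularly from a pBAD plasmid library in pooled LB shake-flask culture, induced with 0.3% L-arabinose, DNA abundance read by NGS, three biological replicates, DESeq2 with apeglm shrinkage.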

Sequence | shrunken log2 fold change
RRIRHRPPRLPRPRPRPFMSPRP | -0.301
RRIRQRPPRLPRPRPRPTWAPRP | 0.586
RRIRARPPRLPRPRPRPSKLPRP | -0.118
RRIRDRPPRLPRPRPRPPVRPRP | 0.0542
RRIRDRPPRLPRPRPRPTIDPRP | 0.607
RRIRVRPPRLPRPRPRPIRYPRP | 0.146
RRIRYRPPRLPRPRPRPSYMPRP | -1.41
RRIRFRPPRLPRPRPRPNSRPRP | -0.0396
RRIRMRPPRLPRPRPRPRIGPRP | 0.396
RRIRGRPPRLPRPRPRPGGYPRP | 0.505
RRIRQRPPRLPRPRPRPIRHPRP | -0.182
RRIRVRPPRLPRPRPRPECIPRP | -0.0283
RRIRYRPPRLPRPRPRPANAPRP | 0.00281
RRIRHRPPRLPRPRPRPIFIPRP | -0.372
RRIRPRPPRLPRPRPRPSLFPRP | -0.344
RRIRYRPPRLPRPRPRPALGPRP | 0.0458
RRIRPRPPRLPRPRPRPRWWPRP | 0.0553
RRIRDRPPRLPRPRPRPCLHPRP | 0.0931
RRIRPRPPRLPRPRPRPILGPRP | -0.148
RRIRPRPPRLPRPRPRPGNRPRP | -0.0146
RRIRVRPPRLPRPRPRPNHVPRP | -0.3
RRIRCRPPRLPRPRPRPPINPRP | -0.319
RRIRHRPPRLPRPRPRPYETPRP | -0.151
RRIRTRPPRLPRPRPRPNCEPRP | 0.111
RRIRNRPPRLPRPRPRPAYDPRP | -0.119

Sequence | shrunken log2 fold change
RRIRERPPRLPRPRPRPPDIPRP | -0.225
RRIRGRPPRLPRPRPRPFWGPRP | 0.289
RRIRYRPPRLPRPRPRPEDCPRP | -0.029
RRIRLRPPRLPRPRPRPRGSPRP | 0.16
RRIRMRPPRLPRPRPRPYSRPRP | -0.253
RRIRYRPPRLPRPRPRPILSPRP | -0.107
RRIRGRPPRLPRPRPRPDFYPRP | 0.232
RRIRTRPPRLPRPRPRPHNRPRP | -0.0489
RRIRLRPPRLPRPRPRPITMPRP | -0.168
RRIRLRPPRLPRPRPRPKNKPRP | -0.291
RRIRFRPPRLPRPRPRPWCSPRP | -0.714
RRIRQRPPRLPRPRPRPVSHPRP | -0.0425
RRIRSRPPRLPRPRPRPVVLPRP | 0.124
RRIRLRPPRLPRPRPRPGRKPRP | 0.0459
RRIRHRPPRLPRPRPRPKRGPRP | 0.0662
RRIRSRPPRLPRPRPRPQQHPRP | 0.0668
RRIRFRPPRLPRPRPRPMTCPRP | -0.0088
RRIRPRPPRLPRPRPRPPWEPRP | 0.0889
RRIRPRPPRLPRPRPRPSQNPRP | -0.107
RRIRYRPPRLPRPRPRPCALPRP | -0.671
RRIRRRPPRLPRPRPRPSQRPRP | 0.0863
RRIRQRPPRLPRPRPRPFKEPRP | 0.343
RRIRHRPPRLPRPRPRPSCLPRP | -0.4
RRIRYRPPRLPRPRPRPYYWPRP | -0.111
RRIRTRPPRLPRPRPRPLPLPRP | -0.107

Sequence | shrunken log2 fold change
RRIRMRPPRLPRPRPRPQRNPRP | 0.209
RRIRERPPRLPRPRPRPQVYPRP | -0.023
RRIRRRPPRLPRPRPRPKGYPRP | 0.172
RRIRSRPPRLPRPRPRPLKCPRP | -0.0843
RRIRWRPPRLPRPRPRPTDAPRP | -0.0515
RRIRSRPPRLPRPRPRPWYVPRP | -0.36
RRIRKRPPRLPRPRPRPPPPPRP | 1.23
RRIRHRPPRLPRPRPRPMWVPRP | -0.015
RRIRHRPPRLPRPRPRPAPIPRP | 0.31
RRIRKRPPRLPRPRPRPPYTPRP | 0.0509
RRIRKRPPRLPRPRPRPMTMPRP | -0.00185
RRIRFRPPRLPRPRPRPVYYPRP | -1.27
RRIRSRPPRLPRPRPRPCYWPRP | -0.121
RRIRNRPPRLPRPRPRPWQNPRP | 0.191
RRIRIRPPRLPRPRPRPNYVPRP | -0.115
RRIRVRPPRLPRPRPRPMRRPRP | 0.392
RRIRKRPPRLPRPRPRPYLGPRP | -0.0981
RRIRNRPPRLPRPRPRPSQIPRP | -0.664
RRIRDRPPRLPRPRPRPCRFPRP | -0.00146
RRIRRRPPRLPRPRPRPWPLPRP | 0.468
RRIRNRPPRLPRPRPRPFENPRP | -0.0135
RRIRMRPPRLPRPRPRPMQYPRP | -0.315
RRIRWRPPRLPRPRPRPPKPPRP | 0.648
RRIRNRPPRLPRPRPRPSMSPRP | -0.222
RRIRDRPPRLPRPRPRPMCVPRP | 0.101

Sequence | shrunken log2 fold change
RRIRYRPPRLPRPRPRPDYFPRP | -0.22
RRIRMRPPRLPRPRPRPGFRPRP | 0.525
RRIRWRPPRLPRPRPRPTFHPRP | 0.00721
RRIRIRPPRLPRPRPRPRKVPRP | -0.0904
RRIRFRPPRLPRPRPRPVVQPRP | -0.119
RRIRKRPPRLPRPRPRPLAHPRP | 0.551
RRIRKRPPRLPRPRPRPTFYPRP | 0.11
RRIRIRPPRLPRPRPRPVRHPRP | -0.0859
RRIRDRPPRLPRPRPRPRRGPRP | 0.365
RRIRLRPPRLPRPRPRPFMTPRP | -0.824
RRIRCRPPRLPRPRPRPMFYPRP | -0.525
RRIRPRPPRLPRPRPRPKDVPRP | -0.115
RRIRGRPPRLPRPRPRPIVGPRP | 0.00341
RRIRFRPPRLPRPRPRPRPQPRP | 0.684
RRIRMRPPRLPRPRPRPGIFPRP | 0.00597
RRIRERPPRLPRPRPRPPPAPRP | 0.365
RRIRQRPPRLPRPRPRPLKCPRP | -0.139
RRIRTRPPRLPRPRPRPNWYPRP | -0.382
RRIRYRPPRLPRPRPRPKRPPRP | 0.45
RRIRYRPPRLPRPRPRPEIPPRP | 0.0336
RRIRPRPPRLPRPRPRPSAVPRP | 0.0719
RRIRLRPPRLPRPRPRPLGLPRP | -0.253
RRIRRRPPRLPRPRPRPFSEPRP | -0.0505
RRIRIRPPRLPRPRPRPACDPRP | -0.0913
RRIRFRPPRLPRPRPRPHPCPRP | -0.231

Sequence | shrunken log2 fold change
RRIRMRPPRLPRPRPRPKQKPRP | 0.0402
RRIRYRPPRLPRPRPRPCHFPRP | -0.0527
RRIRGRPPRLPRPRPRPKHDPRP | 0.466
RRIRDRPPRLPRPRPRPEFEPRP | 0.824
RRIRVRPPRLPRPRPRPVFRPRP | 0.189
RRIRFRPPRLPRPRPRPIWIPRP | -0.234
RRIRCRPPRLPRPRPRPKDHPRP | 0.0424
RRIRNRPPRLPRPRPRPAVRPRP | 0.2
RRIRYRPPRLPRPRPRPTLFPRP | -0.145
RRIRARPPRLPRPRPRPGAAPRP | 1.1
RRIRQRPPRLPRPRPRPVKGPRP | -0.0475
RRIRCRPPRLPRPRPRPSIPPRP | -0.969
RRIRARPPRLPRPRPRPKMAPRP | 0.291
RRIRGRPPRLPRPRPRPLQPPRP | 0.991
RRIRGRPPRLPRPRPRPMYGPRP | -0.107
RRIRLRPPRLPRPRPRPDAKPRP | 0.0577
RRIRIRPPRLPRPRPRPRYHPRP | -1.12
RRIRMRPPRLPRPRPRPEAKPRP | 2.72
RRIRFRPPRLPRPRPRPCRCPRP | -0.735
RRIRKRPPRLPRPRPRPLWTPRP | 0.0306
RRIRARPPRLPRPRPRPISGPRP | -0.00122
RRIRMRPPRLPRPRPRPQRAPRP | 0.943
RRIRIRPPRLPRPRPRPVKYPRP | -9.3e-05
RRIRLRPPRLPRPRPRPGNEPRP | -0.0032
RRIRSRPPRLPRPRPRPQQDPRP | -0.164

Sequence | shrunken log2 fold change
RRIRMRPPRLPRPRPRPASEPRP | 0.145
RRIRKRPPRLPRPRPRPERLPRP | 0.209
RRIRMRPPRLPRPRPRPTAKPRP | 0.255
RRIRVRPPRLPRPRPRPNTFPRP | -0.521
RRIRLRPPRLPRPRPRPEVDPRP | -0.0786
RRIRQRPPRLPRPRPRPQPMPRP | 0.348
RRIRKRPPRLPRPRPRPNKTPRP | -0.227
RRIRYRPPRLPRPRPRPYCEPRP | -0.0996
RRIRMRPPRLPRPRPRPACKPRP | 0.484
RRIRGRPPRLPRPRPRPVEIPRP | 0.177
RRIRKRPPRLPRPRPRPSKGPRP | -0.0301
RRIRYRPPRLPRPRPRPIERPRP | 0.0253
RRIRHRPPRLPRPRPRPKCHPRP | -0.201
RRIRSRPPRLPRPRPRPSQKPRP | -0.158
RRIRCRPPRLPRPRPRPGSGPRP | 0.496
RRIRPRPPRLPRPRPRPDFPPRP | -0.0174
RRIRRRPPRLPRPRPRPTWQPRP | 0.459
RRIRIRPPRLPRPRPRPNDRPRP | -0.0756
RRIRGRPPRLPRPRPRPWRIPRP | -0.15
RRIRLRPPRLPRPRPRPCVVPRP | -0.457
RRIRLRPPRLPRPRPRPDYPPRP | -0.307
RRIRQRPPRLPRPRPRPVHSPRP | -0.0049
RRIRDRPPRLPRPRPRPLTMPRP | 0.188
RRIRKRPPRLPRPRPRPWYWPRP | -0.151
RRIRVRPPRLPRPRPRPDNHPRP | 0.0415
